Source: article PMC6868365 (Nucleic Acids Research, 2019)

What was measured:
[1] = target: T1, DnaA L290A (Escherichia coli, UniProt P03004 1-467, L290A); test: native gel or EMSA
T1 sequence (looked up): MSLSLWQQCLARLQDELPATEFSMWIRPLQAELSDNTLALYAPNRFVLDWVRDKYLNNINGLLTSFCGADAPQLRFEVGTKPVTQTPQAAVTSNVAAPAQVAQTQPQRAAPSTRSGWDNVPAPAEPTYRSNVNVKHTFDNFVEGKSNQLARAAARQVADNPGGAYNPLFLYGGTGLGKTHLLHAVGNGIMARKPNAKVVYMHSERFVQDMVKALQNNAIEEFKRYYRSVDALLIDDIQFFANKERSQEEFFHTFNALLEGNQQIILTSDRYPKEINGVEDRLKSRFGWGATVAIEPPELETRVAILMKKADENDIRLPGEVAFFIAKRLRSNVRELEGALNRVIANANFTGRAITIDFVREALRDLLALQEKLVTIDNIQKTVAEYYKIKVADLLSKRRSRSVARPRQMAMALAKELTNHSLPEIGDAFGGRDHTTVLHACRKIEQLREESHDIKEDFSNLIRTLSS

[2] = target: T2, DnaA Q208A (Escherichia coli, UniProt P03004 1-467, Q208A); test: native gel or EMSA
T2 sequence (looked up): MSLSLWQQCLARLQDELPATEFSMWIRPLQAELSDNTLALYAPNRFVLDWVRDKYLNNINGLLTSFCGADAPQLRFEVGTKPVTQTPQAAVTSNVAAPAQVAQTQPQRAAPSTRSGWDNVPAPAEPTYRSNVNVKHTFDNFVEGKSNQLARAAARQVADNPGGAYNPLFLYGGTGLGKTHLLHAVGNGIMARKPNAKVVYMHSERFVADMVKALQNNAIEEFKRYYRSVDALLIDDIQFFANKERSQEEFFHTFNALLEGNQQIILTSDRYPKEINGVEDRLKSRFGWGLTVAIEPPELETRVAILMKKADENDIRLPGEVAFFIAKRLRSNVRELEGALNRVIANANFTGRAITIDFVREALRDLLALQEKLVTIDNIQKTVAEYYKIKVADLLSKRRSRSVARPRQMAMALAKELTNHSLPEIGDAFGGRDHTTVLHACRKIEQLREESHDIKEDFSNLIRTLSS

B1: DiaA (DnaA initiator-associating protein) (natural protein, Escherichia coli, UniProt P66817 1-196, looked up)
chain: MQERIKACFTESIQTQIAAAEALPDAISRAAMTLVQSLLNGNKILCCGNGTSAANAQHFAASMINRFETERPSLPAIALNTDNVVLTAIANDRLHDEVYAKQVRALGHAGDVLLAISTRGNSRDIVKAVEAAVTRDMTIVALTGYDGGELAGLLGPQDVEIRIPSHRSARIQEMHMLTVNCLCDLIDNTLFPHQDD
B1: binds [1]; binds [2].
